Reference: US20190271704

Key:
[1] = system: T1, NE peptide substrate with acetylated N-terminal CKKK-PEG4 linker and C-terminal heptafluorobutylamine reporter (peptide-PFC)
T1 sequence: CKKKXXXX

[2] = system: T2, NE peptide substrate with acetylated N-terminal CKKK-PEG4 linker and C-terminal pentafluoropropylamine reporter (peptide-PFC)
T2 sequence: CKKKXXXX

Row | Substance | PFC release from the peptide substrate (real-time vapor analysis mass spectrometry) [1] | PFC release from the peptide substrate (real-time vapor analysis mass spectrometry) [2]
1 | MMP13 | minimal cleavage by other proteases ... (MMP9 and MMP13 | minimal cleavage by other proteases ... (MMP9 and MMP13
2 | MMP9 | minimal cleavage by other proteases ... (MMP9 and MMP13 | minimal cleavage by other proteases ... (MMP9 and MMP13
